Abundance fitness data for 58 variants are collected here from the Human Domainome abundance scans (Beltran et al. 2025).

± gives the uncertainty stated by the source.

B1: POU domain, class 4, transcription factor 3, residues 185 to 256; numbered along this chain, Q15319 (parent)
chain: RELEAFAERFKQRRIKLGVTQADVGAALANLKIPGVGSLSQSTICRFESLTLSHNNMIALKPVLQAWLEEAE
B2: Cullin-9, residues 2234 to 2275; numbered along this chain, Q8IWT3 (parent)
chain: KRCPSCQAPIEKNEGCLHMTCAKCNHGFCWRCLKSWKPNHKD

In the first data set the parent is B1. Briefly: abundance fitness (aPCA) (normalised: wild type 0, dead -1); higher = more abundant; growth selection in yeast, the domain comes from the species named. The settings on record: Homo sapiens.
Regarding REEEAFAERFKQRRIKLGVTQADVGAALANLKIPGVGSLSQSTICRFESLTLSHNNMIALKPVLQAWLEEAE [L3E], the abundance fitness is -0.395 ± 0.33.

With REIEAFAERFKQRRIKLGVTQADVGAALANLKIPGVGSLSQSTICRFESLTLSHNNMIALKPVLQAWLEEAE [L3I], the abundance fitness was 0.065 ± 0.07.

Consider RELEAFAERFKQRRIKLGVTQADVGAALANLKIPGVGSLSQSTICRFESLTLSHNYMIALKPVLQAWLEEAE [N56Y], for which the abundance fitness was -0.096 ± 0.28.

For RELEAFAERFKQRRIKLGVTQADVGAALANLKIPGVGSLSQSTICRFESLTLSHNNMIALKGVLQAWLEEAE [P62G], the abundance fitness was -0.244 ± 0.036.

Turning to RELEAFAERFKQRRIKLGVTQADVGAALANLKIPGVGSLSQSTICSFESLTLSHNNMIALKPVLQAWLEEAE [R46S], the abundance fitness was 0.024 ± 0.06.

For the variant RELEAFAERFKQRRIKLGVTQADVGAALANLKIPGVGSLSQSTICRFESLTLSHNNGIALKPVLQAWLEEAE [M57G], the abundance fitness is -0.634 ± 0.15.

For RELEAFAERFKQRRIKLGHTQADVGAALANLKIPGVGSLSQSTICRFESLTLSHNNMIALKPVLQAWLEEAE [V19H], the abundance fitness was 0.007 ± 0.054.

The next data set covers variants of B2. Described as above. The settings on record: Homo sapiens.
As to KRCPSCQAPIEKNEGCLHMTCAKCNHGFCWRCLKSWQPNHKD [K37Q], the abundance fitness came to 0.121 ± 0.1.

For KRCPSCQAPIEKNEGCLHMTCAKCNHGFCWRCLKSWSPNHKD [K37S], the abundance fitness is 0.234 ± 0.099.

Regarding KRCPSCQAPIEKNEGCLHMTCAKCNHGFCWRCLKSWLPNHKD [K37L], the abundance fitness was -0.143 ± 0.096.

Turning to KRCPSCQAPIEKNEGCLHMTCAKCNHGFCWRCLKSWMPNHKD [K37M], the abundance fitness was -0.261 ± 0.12.

Consider KRCPSCQAPIEKNEGCLHMTCAKCNHGFCWRCLKSWWPNHKD [K37W], for which the abundance fitness is -0.168 ± 0.098.

Regarding KRCPSCQAPIEKNEGCLHMTCAKCNHGFCWRCLKSWTPNHKD [K37T], the abundance fitness is 0.117 ± 0.1.

With KRCPSCQAPIEKNEGCLHMTCAKCNHGFCWRCLKSWEPNHKD [K37E], the abundance fitness amounted to 0.219 ± 0.089.

Consider KRCPSCQAPIEKNEGCLHMTCAKCNHGFCWRCLKSWDPNHKD [K37D], for which the abundance fitness is 0.323 ± 0.11.

Take KRCPSCQAPIEKNEGCLHMTCAKCNHGFCWRCLKSWIPNHKD [K37I]: the abundance fitness is -0.039 ± 0.14.

On to KRCPSCQAPIEKNEGCLHMTCAKCNHGFCWRCLKSWYPNHKD [K37Y], for which the abundance fitness is -0.059 ± 0.15.

For the variant KRCPSCQAPIEKNEGCLHMTCAKCNHGFCWRCLKSWFPNHKD [K37F], the abundance fitness is -0.193 ± 0.16.

As to KRCPSCQAPIEKNEGCLHMTCAKCNHGFCWRCLKSWRPNHKD [K37R], the abundance fitness is -0.156 ± 0.078.

Regarding KRCPSCQAPIEKNEGCLHMTCAKCNHGFCWRCLKSWCPNHKD [K37C], the abundance fitness was 0.057 ± 0.11.

As to KRCPSCQAPIEKNEGCLHMTCAKCNHGFCWRCLKSWVPNHKD [K37V], the abundance fitness is 0.078 ± 0.087.

As for KRCPSCQAPIEKNEGCLHMTCAKCNHGFCWRCLKSWPPNHKD [K37P], the abundance fitness is -0.056 ± 0.094.

On to KRCPSCQAPIEKNEGCLHMTCAKCNHGFCWRCLKSWGPNHKD [K37G], for which the abundance fitness was determined as 0.125 ± 0.071.

Take KRCPSCQAPIEKNEGCLHMTCAKCNHGFCWRCLKTWKPNHKD [S35T]: the abundance fitness turned out to be 0.044 ± 0.17.

For the variant KRCPSCQAPIEKNEGCLHMTCAKCNHGFCWRCLKWWKPNHKD [S35W], the abundance fitness was -0.23 ± 0.12.

For KRCPSCQAPIEKNEGCLHMTCAKCNHGFCWRCLKVWKPNHKD [S35V], the abundance fitness was -0.132 ± 0.079.

In the case of KRCPSCQAPIEKNEGCLHMTCAKCNHGFCWRCLKYWKPNHKD [S35Y], the abundance fitness was -0.463 ± 0.23.

Regarding KRCPSCQAPIEKNEGCLHMTCAKCNHGFCWRCLKSWKPNHRD [K41R], the abundance fitness was -0.128 ± 0.094.

For KRCPSCQAPIEKNEGCLHMTCAKCNHGFCWRCLKSWKPNHCD [K41C], the abundance fitness turned out to be 0.578 ± 0.28.

Take KRCPSCQAPIEKNEGCLHMTCAKCNHGFCWRCLKSWKPNHHD [K41H]: the abundance fitness was found to be 0.256 ± 0.21.

For KRCPSCQAPIEKNEGCLHMTCAKCNHGFCWRCLKSWKPNHLD [K41L], the abundance fitness was -0.295 ± 0.12.

On to KRCPSCQAPIEKNEGCLHMTCAKCNHGFCWRCLKSWKPNHVD [K41V], for which the abundance fitness was found to be 0.255 ± 0.1.

With KRCPSCQAPIEKNEGCLHMTCAKCNHGFCWRCLKSWKPNHWD [K41W], the abundance fitness was -0.646 ± 0.15.

Regarding KRCPSCQAPIEKNEGCLHMTCAKCNHGFCWRCLKSWKPNHSD [K41S], the abundance fitness is -0.038 ± 0.12.

Take KRCPSCQAPIEKNEGCLHMTCAKCNHGFCWRCLKSWKPNHTD [K41T]: the abundance fitness is -0.277 ± 0.17.

As for KRCPSCQAPIEKNEGCLHMTCAKCNHGFCWRCLKSWKPNHAD [K41A], the abundance fitness turned out to be 0.047 ± 0.081.

On to KRCPSCQAPIEKNEGCLHMTCAKCNHGFCWRCLKSWKPNHED [K41E], for which the abundance fitness amounted to 0.281 ± 0.096.

For KRCPSCQAPIEKNEGCLHMTCAKCNHGFCWRCLKSWKPNHPD [K41P], the abundance fitness came to 0.318 ± 0.12.

With KRCPSCQAPIEKNEGCLHMTCAKCNHGFCWRCLKSWKPNHND [K41N], the abundance fitness was -0.132 ± 0.37.

In the case of KRCPSCQAPIEKNEGCLHMTCAKCNHGFCWRCLKSWKPNHMD [K41M], the abundance fitness was -0.373 ± 0.23.

With KRCPSCQAPIEKNEGCLHMTCAKCNHGFCWRCLKSYKPNHKD [W36Y], the abundance fitness was -0.17 ± 0.24.

With KRCPSCQAPIEKNEGCLHMTCAKCNHGFCWRCLKSDKPNHKD [W36D], the abundance fitness was 0.255 ± 0.12.

As for KRCPSCQAPIEKNEGCLHMTCAKCNHGFCWRCLKSSKPNHKD [W36S], the abundance fitness worked out at 0.118 ± 0.088.

With KRCPSCQAPIEKNEGCLHMTCAKCNHGFCWRCLKSRKPNHKD [W36R], the abundance fitness was -0.25 ± 0.079.

As to KRCPSCQAPIEKNEGCLHMTCAKCNHGFCWRCLKSKKPNHKD [W36K], the abundance fitness worked out at 0.13 ± 0.13.

As to KRCPSCQAPIEKNEGCLHMTCAKCNHGFCWRCLKSPKPNHKD [W36P], the abundance fitness amounted to 0.067 ± 0.12.

For the variant KRCPSCQAPIEKNEGCLHMTCAKCNHGFCWRCLKSQKPNHKD [W36Q], the abundance fitness stood at 0.082 ± 0.13.

Regarding KRCPSCQAPIEKNEGCLHMTCAKCNHGFCWRCLKSLKPNHKD [W36L], the abundance fitness is 0.205 ± 0.093.

For the variant KRCPSCQAPIEKNEGCLHMTCAKCNHGFCWRCLKSTKPNHKD [W36T], the abundance fitness turned out to be 0.147 ± 0.1.

With KRCPSCQAPIEKNEGCLHMTCAKCNHGFCWRCLKSVKPNHKD [W36V], the abundance fitness turned out to be 0.304 ± 0.074.

Turning to KRCPSCQAPIEKNEGCLHMTCAKCNHGFCWRCLKSNKPNHKD [W36N], the abundance fitness was -0.355 ± 0.34.

As for KRCPSCQAPIEKNEGCLHMTCAKCNHGFCWRCLKSAKPNHKD [W36A], the abundance fitness was 0.029 ± 0.078.

For KRCPSCQAPIEKNEGCLHMTCAKCNHGFCWRCLKSGKPNHKD [W36G], the abundance fitness was -0.026 ± 0.072.

Regarding KRCPSCQAPIEKNEGCLHMTCAKCNHGFCWRCLKSHKPNHKD [W36H], the abundance fitness was -0.015 ± 0.47.

In the case of KRCPSCQAPIEKNEGCLHMTCAKCNHGFCWRCLKSFKPNHKD [W36F], the abundance fitness is -0.194 ± 0.19.

For KRCPSCQAPIEKNEGCLHMTCAKCNHGFCWRCLKSCKPNHKD [W36C], the abundance fitness is -0.391 ± 0.18.

Turning to KRCPSCQAPIEKNEGCLHMTCAKCNHGFCWRCLKSWKPQHKD [N39Q], the abundance fitness was -0.152 ± 0.11.

For KRCPSCQAPIEKNEGCLHMTCAKCNHGFCWRCLKSWKPVHKD [N39V], the abundance fitness is -0.095 ± 0.09.
